# Results from patent US20120101255A1 (published 2012).
# B1: RXP-E (peptide)
# peptide: SDDLRSPQLHNGGGSAVPFYSHSHMVRRKPRNPR
# B2: RXP4 (peptide)
# peptide: RRPPYRVPPKLF
# notes: Synthetic 12-mer from the non-biased phage display screen
# Experiments:
# [1] = biological target: Cx43 expressed in N2a (neuroblastoma) cells; experiment: cell-based or functional assay
# [2] = biological target: T1, Recombinant Cx43CT (carboxyl terminal domain of rat connexin43, residues 255-382, preceded by GPLG) (rat, UniProt P08050 255-382); experiment: SPR, Cx43CT immobilised, peptide 250 µM and higher
# T1 construct: range 255-382; Made as a GST fusion in E. coli and cleaved from GST; 15N-labelled for NMR; also called recombinant CT; carboxyl terminal domain of Cx43
# T1 sequence (P08050 other isoform, or with tags, fused parts or gaps limits assumed): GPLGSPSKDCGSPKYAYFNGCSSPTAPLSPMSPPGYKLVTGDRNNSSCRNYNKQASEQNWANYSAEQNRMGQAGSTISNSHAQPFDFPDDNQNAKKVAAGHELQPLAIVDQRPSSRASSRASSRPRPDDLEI
# Description: II: Applications to Biological Systems,” Biochim. Biophys. Acta 1331(2):131-152 (1997), which is hereby incorporated by reference in its entirety). Specific peptides were presented and, when feasible, dissociation constants (KD) were calculated from the time course of binding and unbinding of the ligand, using a 1:1 (Langmuir) association and dissociation kinetic model (Biacore software package). In both phases (association and dissociation), the first 5-8 seconds of recording were not included in the fit, to avoid artifacts resulting from peptide distribution within the flow cells (Lang et al., “Surface Plasmon Resonance as a Method to Study the Kinetics and Amplitude of Protein-protein Binding,” in PRACTICAL METHODS IN CARDIOVASCULAR […] 936-947 (Stefan Dhein, Friedrich Wilhelm Mohr & Mario Delmar eds., 2005), which is hereby incorporated by reference in its entirety).
# Phage display allows for the rapid screening of thousands of peptides, but the characteristics of binding cannot be properly defined. Furthermore, the peptides are part of a capsid protein, which may affect the ability of the peptide to properly interact with the target protein. […] Higher concentrations of the peptide were tested but an asymptotic maximum response could not be detected.
binder,measurement,setting,value
B1,"junctional conductance (Gj) relative to control during octanol superfusion, RXP-E 0.1 mM in the pipette",[1],57.6 % of control
same,"junctional conductance (Gj) relative to control with pipette solution at pH 6.2, RXP-E in the pipette",[1],57 % of control
B2,binding result,[2],binds
